Experimental data as given in patent US20150299285A1.
Bridges are numbered along the chain shown (N, C = ends). Primed or numbered codes have the meaning given here. Where no end group is shown, it is not given here. [ ]: non-standard residue; d: D form. PEG4′ = non-peptide PEG4 spacer in the linking moiety; PEG8″ = non-peptide PEG8 spacer in the linking moiety

Legend:
Assay in all cases: cell-based or functional assay
[1] = biological target: insulin receptor subtype B (human), P06213
[2] = biological target: insulin receptor subtype A (human), P06213
[3] = biological target: insulin receptor subtype B (human) (UniProt P06213)
[4] = biological target: insulin receptor subtype A (human) (UniProt P06213)
[5] = biological target: human IGF-1 receptor (human) (UniProt P08069)

Row | Binder | % Insulin Activity (in vitro; assay not stated) [1] [%] | % Insulin Activity (in vitro; assay not stated) [2] [%] | EC50, Receptor Phosphorylation [3] [nM] | EC50, Receptor Phosphorylation [4] [nM] | EC50, Receptor Phosphorylation [5] [nM]
1 | MIU-35: B^1(H5, H10, Y16, L17)25-C^1-A^1 (H8, N18, N21) (ligand) GPEHLCGAHLVDALYLVCGDRGFYGYGSSSRRAPQTGIVDECCHRSCDLRRLENYCN | 17.4 | 61.4 | – | – | –
2 | GPEHLCGAELVDALYLVCGDRGFY[PEG8″]K(PEG 20 kDa)[PEG4′]GIVDECCFRSCDLRRLENYCN (ligand, disulfide 18-47, 33-38, 6-34) [MIU-56: C8-PEG20K B^1(H5, Y16, L17)25-PEG8-K-PEG4-A^1(N18, N21)] | – | 14.8 | – | – | –
3 | MIU-57: B1-PEG20K B^1(H5,Y16,L17)25-C^1-A^1(N18,21), P05019 49-110 (ligand, disulfide 18-56, 42-47, 6-43) {PEG 20 kDa}-GPEHLCGAELVDALYLVCGDRGFYGYGSSSRRAPQTGIVDECCFRSCDLRRLENYCN | 1.1 | 3.1 | – | – | –
4 | MIU-58: B1-PEG20K-B1- Dimer, P05019 49-110 (ligand, disulfide 18-56, 42-47, 6-43; also: dimer: two chains linked head to head via 20 kDa PEG) {PEG 20 kDa}-GPEHLCGAELVDALYLVCGDRGFYGYGSSSRRAPQTGIVDECCFRSCDLRRLENYCN | 5.8 | 19.7 | – | – | –
5 | MIU-67: B0, C8-PEG10K di-PEGylated B^1(H5,Y16,L17)25-C^1(K8)-A^1(N18,21) (ligand, disulfide 18-56, 42-47, 6-43) {PEG 10 kDa}-GPEHLCGAELVDALYLVCGDRGFYGYGSSSRK(PEG 10 kDa)APQTGIVDECCFRSCDLRRLENYCN | 0.1 | 0.2 | – | – | –
6 | MIU-68: B0, B22-PEG10K di-PEGylated B^1(H5,Y16,L17, K22)25-C^1(K8)-A^1(N18,21) (ligand, disulfide 18-56, 42-47, 6-43) {PEG 10 kDa}-GPEHLCGAELVDALYLVCGDK(PEG 10 kDa)GFYGYGSSSRKAPQTGIVDECCFRSCDLRRLENYCN | 0.1 | 0.4 | – | – | –
7 | MIU-69: B0, A14-PEG10K di-PEGylated B^1(H5,Y16,L17)25-C^1(K8)-A^1(K14, N18,21) (ligand, disulfide 18-56, 42-47, 6-43) {PEG 10 kDa}-GPEHLCGAELVDALYLVCGDRGFYGYGSSSRKAPQTGIVDECCFRSCDLK(PEG 10 kDa)RLENYCN | 0.5 | 1 | – | – | –
8 | DP19LysC (ligand) GPEHLCGAHLVDALYLVCGDRGFYGYGSSSRRAPQTGIVDECCHRSCDLRRLENYCN | – | – | 1.2 | 0.3 | 20.7
